The series deals with T1, Flag-yTdp1 H432N (Saccharomyces cerevisiae, UniProt P38319 1-544, H432N).
T1 sequence: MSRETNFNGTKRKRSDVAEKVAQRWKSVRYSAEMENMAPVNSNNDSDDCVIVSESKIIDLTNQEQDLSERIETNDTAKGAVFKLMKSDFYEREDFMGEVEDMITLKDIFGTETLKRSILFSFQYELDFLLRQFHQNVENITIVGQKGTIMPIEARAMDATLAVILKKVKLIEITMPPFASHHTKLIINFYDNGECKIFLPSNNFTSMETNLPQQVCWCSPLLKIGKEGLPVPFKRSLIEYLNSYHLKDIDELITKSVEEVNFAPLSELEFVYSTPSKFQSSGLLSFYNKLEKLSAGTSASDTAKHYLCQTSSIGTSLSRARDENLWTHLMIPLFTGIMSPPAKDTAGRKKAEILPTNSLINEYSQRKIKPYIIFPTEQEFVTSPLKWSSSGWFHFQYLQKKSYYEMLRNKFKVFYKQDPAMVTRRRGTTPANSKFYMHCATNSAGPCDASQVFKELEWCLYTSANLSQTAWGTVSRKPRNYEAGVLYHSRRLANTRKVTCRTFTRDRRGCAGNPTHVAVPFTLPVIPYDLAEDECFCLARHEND
Kind of series: EMSA. In general terms: In EMSA bound probe runs differently from free probe, usually more slowly.

Consider GATCTAAAAGACTT (ssDNA, 3' phosphotyrosine) [3'-pY 14-mer substrate], for which the binding result is given as “no binding”.
